Among the data in patent publication US20230138315A1 (JIANGSU HENGRUI MEDICINE, published 2023) are EC50 values, retold here.

Sequences and labels used below:
T1: rat ANGPTL3(17-455)-His (rat, biotin-labelled in the ELISA and HTRF assays (sites not given))
T1 construct: also called full-length rat ANGPTL3
T1 chain: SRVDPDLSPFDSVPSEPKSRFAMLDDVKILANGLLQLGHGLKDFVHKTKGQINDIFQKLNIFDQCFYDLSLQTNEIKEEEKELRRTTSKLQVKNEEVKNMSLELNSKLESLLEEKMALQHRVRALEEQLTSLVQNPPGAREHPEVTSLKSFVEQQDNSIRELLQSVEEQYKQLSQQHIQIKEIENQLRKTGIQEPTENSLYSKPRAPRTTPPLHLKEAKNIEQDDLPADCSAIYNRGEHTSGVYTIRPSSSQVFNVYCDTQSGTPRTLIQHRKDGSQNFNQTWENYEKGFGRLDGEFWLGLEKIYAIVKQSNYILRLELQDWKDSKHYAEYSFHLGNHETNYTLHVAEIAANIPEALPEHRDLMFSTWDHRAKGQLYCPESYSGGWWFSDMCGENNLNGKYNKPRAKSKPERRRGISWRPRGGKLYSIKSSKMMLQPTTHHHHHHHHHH

T2: mouse ANGPTL3(17-455)-His (mouse, UniProt Q9R182 17-455, biotin-labelled in the ELISA and HTRF assays (sites not given))
T2 construct: also called full-length mouse ANGPTL3
T2 sequence: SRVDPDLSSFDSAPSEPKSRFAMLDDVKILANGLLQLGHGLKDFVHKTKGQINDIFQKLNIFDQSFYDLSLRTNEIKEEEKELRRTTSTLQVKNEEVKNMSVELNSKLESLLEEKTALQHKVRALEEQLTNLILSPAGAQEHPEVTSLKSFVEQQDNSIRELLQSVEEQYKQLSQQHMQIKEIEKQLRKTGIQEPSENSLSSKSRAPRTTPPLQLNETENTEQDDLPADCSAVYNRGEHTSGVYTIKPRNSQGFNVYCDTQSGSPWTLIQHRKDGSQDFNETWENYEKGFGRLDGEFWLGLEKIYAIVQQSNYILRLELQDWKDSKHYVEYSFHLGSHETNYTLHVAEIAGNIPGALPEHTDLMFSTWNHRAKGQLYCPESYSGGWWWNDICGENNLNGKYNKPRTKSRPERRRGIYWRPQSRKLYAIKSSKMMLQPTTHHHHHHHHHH

T3: cynomolgus monkey ANGPTL3(17-460)-His (cynomolgus monkey, UniProt Q9Y5C1 17-460 (human entry), biotin-labelled in the ELISA and HTRF assays (sites not given))
T3 construct: also called full-length cynomolgus monkey ANGPTL3; Cyno ANGPTL3
T3 chain: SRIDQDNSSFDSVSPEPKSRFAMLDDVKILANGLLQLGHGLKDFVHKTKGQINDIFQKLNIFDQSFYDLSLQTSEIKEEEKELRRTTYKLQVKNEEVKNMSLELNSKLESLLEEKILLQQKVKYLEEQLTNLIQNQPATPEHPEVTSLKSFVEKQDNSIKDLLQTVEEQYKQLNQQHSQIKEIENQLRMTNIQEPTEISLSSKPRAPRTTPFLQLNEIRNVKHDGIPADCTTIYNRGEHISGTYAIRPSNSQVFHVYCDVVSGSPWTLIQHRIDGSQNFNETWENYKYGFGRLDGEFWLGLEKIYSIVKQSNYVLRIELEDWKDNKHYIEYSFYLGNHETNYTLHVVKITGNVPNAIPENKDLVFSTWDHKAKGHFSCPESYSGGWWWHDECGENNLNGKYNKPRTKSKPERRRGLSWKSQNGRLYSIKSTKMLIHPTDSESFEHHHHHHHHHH

B1: P3G (antibody, human IgG4 S228P, kappa, V domains shown)
VH: QVQLVQSGAEVKKPGASVKVSCKSSGYTFTDYYLHWLRQAPGQGPEWMGWISPNSGGTSYAQKFQGRVTMTRDTSISTAYMELSSLRSDDTAVYYCARDIATLGNFFTYGMDVWGQGTTVTVSS
VL: DIQLTQSPSSLSASVGDRVTITCRASQGIRNDLGWYQQKPGKAPKLLIYAASSLQSGVPSRFSGSGSGTDFTLTISSLQPEDFATYYCQQSYSSWTFGQGTKVEIKR
notes: also called anti-ANGPTL3 antibody P3G; P3 (variable regions)
B2: P8G (antibody, human IgG4 S228P, kappa, V domains shown)
VH: QVQLVQSGAEVKKPGASVKVSCKASGYTFTSYDINWVRQAPGQGLEWVGLINPRDDSTSYAQKFQGRVTMTRDTSTSTMYMELSSLRSEDTAVYFCARDLGSIREVLYYGMDVWGQGTTVTVSS
VL: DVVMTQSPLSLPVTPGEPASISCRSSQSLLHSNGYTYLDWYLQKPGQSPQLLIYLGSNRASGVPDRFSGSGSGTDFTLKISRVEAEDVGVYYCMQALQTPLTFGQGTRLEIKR
notes: also called anti-ANGPTL3 antibody P8G; P8 (variable regions)
B3: P8BG (antibody, human IgG4 S228P, kappa, V domains shown)
VH: B2 VH with D55E
VL: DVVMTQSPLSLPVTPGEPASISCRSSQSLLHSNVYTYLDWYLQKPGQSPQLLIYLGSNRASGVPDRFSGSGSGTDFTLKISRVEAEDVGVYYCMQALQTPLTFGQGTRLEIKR
notes: also called anti-ANGPTL3 antibody P8BG; P8B (variable regions)

Positions count from the first letter of the chain named. In names and notes the source's numbering stands.

The target in the first assay is T1, rat ANGPTL3(17-455)-His. Put plainly: ELISA; biotin-labelled antigen on streptavidin-coated plate. How it is done:
(§1) An anti-ANGPTL3 antibody inhibited or interfered with at least one activity of an ANGPTL3 protein by binding to the ANGPTL3 protein. The binding activity of the anti-ANGPTL3 antibody to the ANGPTL3 antigen was tested by an ELISA assay. The ANGPTL3 protein (human ANGPTL3(17-170)-mFc) was immobilized on a 96-well microplate by binding to the goat anti-mouse IgG coated on the microplate, and the binding activity of the antibody to the ANGPTL3 was determined according to the intensity of the signal after the antibody was added.
(§2) Streptavidin (Sigma, S4762-5MG) was diluted to a concentration of 3 μg/mL with PBS buffer (Shanghai BasalMedia, B320, pH 7.4), added to a 96-well microplate (Corning, CLS3590-100EA) at 50 μL/well, and then incubated in an incubator at 37° C. for 3 h or incubated at 4° C. overnight (16-18 h). After the liquid was discarded, a PBS-diluted 5% skim milk (BD, 232100) blocking solution was added at 250 μL/well, and the mixture was incubated in an incubator at 37° C. for 3 h or incubated at 4° C. overnight (16-18 h) for blocking. […] The mixture was incubated in an incubator at 37° C. for 2 h. After the incubation was finished, the reaction solution in the microplate was discarded. The plate was washed 3 times with PBST, and then a test antibody that was diluted with a sample diluent to different concentrations was added at […]. The mixture was incubated in an incubator at 37° C. for 2 h.
B1 gave an EC50 of 1.44 nM.
On the same count and under the same terms, to B2 belongs 2.12 nM.
The same measure, in the same setting: to B3 belongs 0.528 nM.

Another assay concerns the target T2, mouse ANGPTL3(17-455)-His. The description is as above. The procedure:
as §1, §2
Molecule B1 came in with an EC50 of 1.63 nM.
Same read-out and setting: to B2 belongs 1.73 nM.
On the same count and under the same terms, to B3 belongs 0.105 nM.

The next assay addresses T3, cynomolgus monkey ANGPTL3(17-460)-His. The assay is described as above. The procedure: as §1, §2
B1 gave an EC50 of 4.55 nM.
Same read-out and setting: to B2 belongs 2.53 nM.
Same read-out and setting: to B3 belongs 0.2 nM.

The term EC50 denotes the concentration needed to bring the measured effect to its halfway point.
